# From article doi:10.1101/2023.09.01.555900 (bioRxiv, 2023)
# B1: Rof (Rho-off, also called YaeO) (natural protein, E. coli)
# chain: MNDTYQPINCDDYDNLELACQHHLMLTLELKDGEKLQAKASDLVSRKNVEYLVVEAAGETRELRLDKITSFSHPEIGTVVVSES
# Biological target: Rho factor (E. coli transcription termination factor Rho) (E. coli, UniProt P0AG30 1-419)
# Assay: SEC
# Chain of Rho factor (E. coli transcription termination factor Rho) (P0AG30 whole entry): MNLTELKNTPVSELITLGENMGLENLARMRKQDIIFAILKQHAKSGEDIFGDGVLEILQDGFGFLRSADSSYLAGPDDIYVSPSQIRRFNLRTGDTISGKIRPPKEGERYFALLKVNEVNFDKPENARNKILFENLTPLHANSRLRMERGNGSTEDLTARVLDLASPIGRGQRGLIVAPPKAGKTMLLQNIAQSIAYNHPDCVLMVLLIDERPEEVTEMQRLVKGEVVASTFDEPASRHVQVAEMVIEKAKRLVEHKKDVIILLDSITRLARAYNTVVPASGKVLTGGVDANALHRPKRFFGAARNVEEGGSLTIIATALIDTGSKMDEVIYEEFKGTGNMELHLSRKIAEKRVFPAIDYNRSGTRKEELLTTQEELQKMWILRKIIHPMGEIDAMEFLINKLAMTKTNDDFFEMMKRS
binder,measurement,value
B1,binding result,binds
